According to PMC10792529 (Proteins, 2023):
Where “and” joins values, the source holds several entries; their conditions need not be identical. Equal entries are not always repeated.

T1: E. coli outer-membrane transporter FhuA (E. coli, UniProt P06971 34-747)
T1 sequence (looked up): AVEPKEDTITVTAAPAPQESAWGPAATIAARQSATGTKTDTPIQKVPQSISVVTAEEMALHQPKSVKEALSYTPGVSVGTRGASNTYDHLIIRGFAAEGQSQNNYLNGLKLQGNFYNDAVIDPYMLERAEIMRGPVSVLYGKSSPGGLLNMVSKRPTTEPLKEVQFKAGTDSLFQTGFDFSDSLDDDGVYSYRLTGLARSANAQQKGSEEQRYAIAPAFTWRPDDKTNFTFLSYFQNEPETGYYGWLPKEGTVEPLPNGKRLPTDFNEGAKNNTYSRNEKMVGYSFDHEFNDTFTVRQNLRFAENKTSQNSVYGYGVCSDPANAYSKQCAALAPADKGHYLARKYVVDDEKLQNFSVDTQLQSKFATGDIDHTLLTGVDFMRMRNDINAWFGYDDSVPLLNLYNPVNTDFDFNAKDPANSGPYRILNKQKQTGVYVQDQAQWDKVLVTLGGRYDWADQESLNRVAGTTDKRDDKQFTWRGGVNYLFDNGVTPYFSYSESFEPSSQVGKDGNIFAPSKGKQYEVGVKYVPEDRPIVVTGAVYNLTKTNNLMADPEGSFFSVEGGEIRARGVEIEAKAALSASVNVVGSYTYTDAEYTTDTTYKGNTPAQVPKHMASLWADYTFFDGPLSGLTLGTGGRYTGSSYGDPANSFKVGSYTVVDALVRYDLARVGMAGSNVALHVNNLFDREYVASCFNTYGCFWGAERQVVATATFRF

B1: human SUN1 SUN domain (domain or fragment)
chain: GITEAQARAIVNSALKLYSQDKTGMVDFALESGGGSILSTRCSETYETKTALMSLFGIPLWYFSQSPRVVIQPDIYPGNCWAFKGSQGYLVVRLSMMIHPAAFTLEHIPKTLSPTGNISSAPKDFAVYGLENEYQEEGQLLGQFTYDQDGESLQMFQALKRPDDTAFQIVELRIFSNWGHPEYTCLYRFRVHGEPVK
B2: Bacteriophage T5 Receptor Binding Protein RBPpb5 (natural protein)
chain: MSFFAGKLNNKSILSLRRGSGGDTNQHINPDSQTIFHSDMSHVIITETHSTGLRLDQGAGDYYWSEMPSRVTQLHNNDPNRVVLTEIEFSDGSRHMLSGMSMGVGAKAYGIINPQIMSQGGLKTQITASADLSLDVGYFNTGTSGTIPQKLRDGTGCQHMFGAFSGRRGFASSAMYLGGAALYKSAWSGSGYVVADAGTLTIPSDYVRHPGARNFGFNAIYVRGRSCNRVLYGMEGPNYTTGGAVQGASSSGALNFTYNPSNPESPKYSVGFARADPTNYAYWESMGDPNDSANGPIGIYSEHLGIYPSKITWYVTNLVYNGSGYNIDGGLFNGNDIKLSPREFIIKGVNVNNTSWKFINFIEKNFNVGNRADFRDVGCNLSKDSPSTGISGIATFGLPTTESNNAPSIKGGNVGGLHANVVSIYNFLPSASWYVSSNPPKIGNNYGDVWSENLLPLRLLGGSGSTILSGNIVFQGNGSVHVGTVGLDLNSSRNGAIVCTMEFIDDTWLSAGGIGCFNPTEMLSQGAEYGDSRFRIGGNTINKKLHQILSLPAGEYVPFFTIKGTVVNACKLQAAAYNPTPYWVSGLPGSVGQTGYYTLTYYMRNDGNNNISIWLDSSMSNIIGMKACLPNIKLIIQRLT
B3: nanobody 8C (VHH)
VHH: EVQLEESGGGLVQAGGSLTLSCAASGFTFDDYAMGWYRQAPGKERVGVSCISRTDGYTYYLDSVKGRFTISTDHAKHTVYLQMNNLKPDDTGLYYCAADADPEYGSRCPDPYYGMDYWGKGILVTVSS

Key:
[1] = target: nudivirus polyhedrin (occlusion body protein of Tipula oleracea nudivirus) (Tipula oleracea nudivirus); experiment: crystal structure
[2] = target: HucM, scaffold subunit of the [NiFe]-hydrogenase Huc (Mycobacterium smegmatis); experiment: cryo-EM structure; 833 kDa Huc complex: 8 HucL, 8 HucS, 4 HucM
[3] = target: cytosolic domain of the major export gate protein YscV (Yersinia enterocolitica); experiment: crystal structure; 9:9:9 YscV:YscX:YscY complex, 4.1 Å, 18 copies of the 1:1:1 complex in the asymmetric unit
[4] = target: HucSL heterodimer (Mycobacterium smegmatis); experiment: cryo-EM structure; 833 kDa Huc complex: 8 HucL, 8 HucS, 4 HucM
[5] = target: Mycobacterium smegmatis MceG (Mycobacterium smegmatis); experiment: cryo-EM structure
[6] = target: tyrosine O-methyltransferase MfnG from Streptomyces drozdowiczii (Streptomyces drozdowiczii); experiment: crystal structure; MfnG with SAH and soaked L-Tyr; five crystal forms with one to four dimers per asymmetric unit
[7] = target: the molecule itself; experiment: crystal structure; SUN1-KASH6 complex, nine SUN domains and six KASH peptides
[8] = target: T1, E. coli outer-membrane transporter FhuA; experiment: cryo-EM structure; details: both partners purified
[9] = target: phosphodiesterase domain of 2',3'-cyclic nucleotide 3'-phosphodiesterase (CNPase) (Mus musculus (assumed; species not …, UniProt P16330); experiment: crystal structure; nanobodies co-crystallized with the phosphodiesterase domain of CNPase; details: both partners purified
[10] = target: B1; experiment: crystal structure; SUN1-KASH6 complex, nine SUN domains and six KASH peptides; details: both partners purified

Chain of phosphodiesterase domain of 2',3'-cyclic nucleotide 3'-phosphodiesterase (CNPase) (Mus musculus (P16330 whole entry, looked up, the tested form may be a part): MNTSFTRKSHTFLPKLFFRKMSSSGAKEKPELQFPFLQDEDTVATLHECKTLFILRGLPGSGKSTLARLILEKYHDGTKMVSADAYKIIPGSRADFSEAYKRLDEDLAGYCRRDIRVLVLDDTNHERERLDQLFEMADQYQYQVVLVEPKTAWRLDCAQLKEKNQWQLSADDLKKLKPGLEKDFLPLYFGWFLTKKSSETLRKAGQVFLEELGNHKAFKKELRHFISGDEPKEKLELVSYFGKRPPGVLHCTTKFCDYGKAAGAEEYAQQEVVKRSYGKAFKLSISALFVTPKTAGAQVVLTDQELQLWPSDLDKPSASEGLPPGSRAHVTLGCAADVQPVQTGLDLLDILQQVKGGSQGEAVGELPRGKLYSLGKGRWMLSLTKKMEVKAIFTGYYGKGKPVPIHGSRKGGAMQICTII

“nudivirus polyhedrin (occlusion body protein of Tipula oleracea nudivirus) (natural protein)” was tested. Which stoichiometry N [1] did it give?
Its stoichiometry N is 2.

Which stoichiometry N [2] does the source give for “HucM, scaffold subunit of the [NiFe]-hydrogenase Huc (natural protein)” here?
Its stoichiometry N is 4.

With YscX:YscY heterodimer (complex) as the molecule, how does the stoichiometry N (YscX:YscY complexes per YscV nonamer) [3] read?
Its stoichiometry N (YscX:YscY complexes per YscV nonamer) is 9.

HucSL heterodimer (complex) was tested. Which stoichiometry N [4] did it give?
The stoichiometry N was 2.

With “cytosolic domain of the major export gate protein YscV (domain or fragment)” as the molecule, how does the stoichiometry N [3] read?
Its stoichiometry N is 9.

How did the stoichiometry N [5] turn out when Mycobacterium smegmatis MceG (enzyme) was run?
Its stoichiometry N is 2.

“tyrosine O-methyltransferase MfnG from Streptomyces drozdowiczii (enzyme)” was tested. Which stoichiometry N [6] did it give?
Its stoichiometry N is 2.

Which “stoichiometry N” value [7] does the source give for B1 here?
Its value is 3 and 9.

Does B2 bind [8]?
Result: binds

Does B3 bind [9]?
Result: binds

Which “stoichiometry N” value [10] does the source give for TGQLFQKSVDAAPTQQEDSWTSLEHILWPFTRLRHNGPPPV [KASH6 peptide, the KASH domain of JAW1/LRMP] here?
Its value is 2 KASH6 peptides per SUN1 trimer.
